{
  "source": "the Human Domainome abundance scans (Beltran et al. 2025)",
  "parents": {"B1": {"name": "Neutrophil cytosol factor 2, residues 456 to 514; numbered along this chain, P19878 (parent)", "chain": "LKKGSQVEALFSYEATQPEDLEFQEGDIILVLSKVNEEWLEGECKGKVGIFPKVFVEDC"}},
  "note": "± gives the uncertainty stated by the source.",
  "data": [
    {"variants_of": "B1", "test": "abundance fitness (aPCA) (normalised: wild type 0, dead -1); higher = more abundant; growth selection in yeast, the domain comes from the species named", "conditions": "Homo sapiens", "values": [
      {"variant": "LKKGSQVEALFSYEATQPLDLEFQEGDIILVLSKVNEEWLEGECKGKVGIFPKVFVEDC", "note": "[E19L]", "abundance fitness": "0.006 ± 0.09"},
      {"variant": "LKKGSQVEALFSYEATQPRDLEFQEGDIILVLSKVNEEWLEGECKGKVGIFPKVFVEDC", "note": "[E19R]", "abundance fitness": "-0.295 ± 0.099"},
      {"variant": "LKKGSQVEALFSYEATQPADLEFQEGDIILVLSKVNEEWLEGECKGKVGIFPKVFVEDC", "note": "[E19A]", "abundance fitness": "-0.172 ± 0.11"},
      {"variant": "LKKGSQVEALFSYEATQPGDLEFQEGDIILVLSKVNEEWLEGECKGKVGIFPKVFVEDC", "note": "[E19G]", "abundance fitness": "0.598 ± 0.071"},
      {"variant": "LKKGSQVEALFSYEATQPNDLEFQEGDIILVLSKVNEEWLEGECKGKVGIFPKVFVEDC", "note": "[E19N]", "abundance fitness": "0.156 ± 0.1"},
      {"variant": "LKKGSQVEALFSYEATQPHDLEFQEGDIILVLSKVNEEWLEGECKGKVGIFPKVFVEDC", "note": "[E19H]", "abundance fitness": "-0.096 ± 0.13"},
      {"variant": "LKKGSQVEALFSYEATQPDDLEFQEGDIILVLSKVNEEWLEGECKGKVGIFPKVFVEDC", "note": "[E19D]", "abundance fitness": "-0.501 ± 0.2"},
      {"variant": "LKKGSQVEALFSYEATQPQDLEFQEGDIILVLSKVNEEWLEGECKGKVGIFPKVFVEDC", "note": "[E19Q]", "abundance fitness": "-0.216 ± 0.27"},
      {"variant": "LKKGSQVEALFSYEATQPCDLEFQEGDIILVLSKVNEEWLEGECKGKVGIFPKVFVEDC", "note": "[E19C]", "abundance fitness": "-0.112 ± 0.087"},
      {"variant": "LKKGSQVEALFSYEATQPFDLEFQEGDIILVLSKVNEEWLEGECKGKVGIFPKVFVEDC", "note": "[E19F]", "abundance fitness": "-0.676 ± 0.14"},
      {"variant": "LKKGSQVEALFSYEATQPTDLEFQEGDIILVLSKVNEEWLEGECKGKVGIFPKVFVEDC", "note": "[E19T]", "abundance fitness": "-0.055 ± 0.12"},
      {"variant": "LKKGSQVEALFSYEATQPKDLEFQEGDIILVLSKVNEEWLEGECKGKVGIFPKVFVEDC", "note": "[E19K]", "abundance fitness": "-0.723 ± 0.4"},
      {"variant": "LKKGSQVEALFSYEATQPVDLEFQEGDIILVLSKVNEEWLEGECKGKVGIFPKVFVEDC", "note": "[E19V]", "abundance fitness": "-0.443 ± 0.12"},
      {"variant": "LKKGSQVEALFSYEATQPPDLEFQEGDIILVLSKVNEEWLEGECKGKVGIFPKVFVEDC", "note": "[E19P]", "abundance fitness": "-1.06 ± 0.34"},
      {"variant": "LKKGSQVEALFSYEATQPIDLEFQEGDIILVLSKVNEEWLEGECKGKVGIFPKVFVEDC", "note": "[E19I]", "abundance fitness": "-0.305 ± 0.11"},
      {"variant": "LKKGSQVEALFSYEATQPWDLEFQEGDIILVLSKVNEEWLEGECKGKVGIFPKVFVEDC", "note": "[E19W]", "abundance fitness": "-0.166 ± 0.17"},
      {"variant": "LKKGSQVEALFSYEATQPSDLEFQEGDIILVLSKVNEEWLEGECKGKVGIFPKVFVEDC", "note": "[E19S]", "abundance fitness": "-0.229 ± 0.08"},
      {"variant": "LKKGSQVEALFSYEATQPMDLEFQEGDIILVLSKVNEEWLEGECKGKVGIFPKVFVEDC", "note": "[E19M]", "abundance fitness": "-0.463 ± 0.22"},
      {"variant": "LKKGSQVEALFSYEATQPEQLEFQEGDIILVLSKVNEEWLEGECKGKVGIFPKVFVEDC", "note": "[D20Q]", "abundance fitness": "0.093 ± 0.14"},
      {"variant": "LKKGSQVEALFSYEATQPEWLEFQEGDIILVLSKVNEEWLEGECKGKVGIFPKVFVEDC", "note": "[D20W]", "abundance fitness": "-0.7 ± 0.3"},
      {"variant": "LKKGSQVEALFSYEATQPEALEFQEGDIILVLSKVNEEWLEGECKGKVGIFPKVFVEDC", "note": "[D20A]", "abundance fitness": "-0.198 ± 0.12"},
      {"variant": "LKKGSQVEALFSYEATQPEKLEFQEGDIILVLSKVNEEWLEGECKGKVGIFPKVFVEDC", "note": "[D20K]", "abundance fitness": "-0.683 ± 0.38"},
      {"variant": "LKKGSQVEALFSYEATQPESLEFQEGDIILVLSKVNEEWLEGECKGKVGIFPKVFVEDC", "note": "[D20S]", "abundance fitness": "-0.528 ± 0.11"},
      {"variant": "LKKGSQVEALFSYEATQPEMLEFQEGDIILVLSKVNEEWLEGECKGKVGIFPKVFVEDC", "note": "[D20M]", "abundance fitness": "0.06 ± 0.17"},
      {"variant": "LKKGSQVEALFSYEATQPENLEFQEGDIILVLSKVNEEWLEGECKGKVGIFPKVFVEDC", "note": "[D20N]", "abundance fitness": "-0.703 ± 0.16"},
      {"variant": "LKKGSQVEALFSYEATQPECLEFQEGDIILVLSKVNEEWLEGECKGKVGIFPKVFVEDC", "note": "[D20C]", "abundance fitness": "0.014 ± 0.085"},
      {"variant": "LKKGSQVEALFSYEATQPEVLEFQEGDIILVLSKVNEEWLEGECKGKVGIFPKVFVEDC", "note": "[D20V]", "abundance fitness": "-0.578 ± 0.13"},
      {"variant": "LKKGSQVEALFSYEATQPELLEFQEGDIILVLSKVNEEWLEGECKGKVGIFPKVFVEDC", "note": "[D20L]", "abundance fitness": "-0.071 ± 0.12"},
      {"variant": "LKKGSQVEALFSYEATQPEYLEFQEGDIILVLSKVNEEWLEGECKGKVGIFPKVFVEDC", "note": "[D20Y]", "abundance fitness": "0.142 ± 0.073"},
      {"variant": "LKKGSQVEALFSYEATQPEELEFQEGDIILVLSKVNEEWLEGECKGKVGIFPKVFVEDC", "note": "[D20E]", "abundance fitness": "0.757 ± 0.14"},
      {"variant": "LKKGSQVEALFSYEATQPEGLEFQEGDIILVLSKVNEEWLEGECKGKVGIFPKVFVEDC", "note": "[D20G]", "abundance fitness": "-0.125 ± 0.092"},
      {"variant": "LKKGSQVEALFSYEATQPEHLEFQEGDIILVLSKVNEEWLEGECKGKVGIFPKVFVEDC", "note": "[D20H]", "abundance fitness": "0.904 ± 0.074"},
      {"variant": "LKKGSQVEALFSYEATQPEILEFQEGDIILVLSKVNEEWLEGECKGKVGIFPKVFVEDC", "note": "[D20I]", "abundance fitness": "-0.375 ± 0.13"},
      {"variant": "LKKGSQVEALFSYEATQPEPLEFQEGDIILVLSKVNEEWLEGECKGKVGIFPKVFVEDC", "note": "[D20P]", "abundance fitness": "-0.162 ± 0.15"},
      {"variant": "LKKGSQVEALFSYEATQIEDLEFQEGDIILVLSKVNEEWLEGECKGKVGIFPKVFVEDC", "note": "[P18I]", "abundance fitness": "-0.651 ± 0.22"},
      {"variant": "LKKGSQVEALFSYEATQWEDLEFQEGDIILVLSKVNEEWLEGECKGKVGIFPKVFVEDC", "note": "[P18W]", "abundance fitness": "-0.711 ± 0.24"},
      {"variant": "LKKGSQVEALFSYEATQVEDLEFQEGDIILVLSKVNEEWLEGECKGKVGIFPKVFVEDC", "note": "[P18V]", "abundance fitness": "-0.648 ± 0.17"},
      {"variant": "LKKGSQVEALFSYEATQTEDLEFQEGDIILVLSKVNEEWLEGECKGKVGIFPKVFVEDC", "note": "[P18T]", "abundance fitness": "-0.599 ± 0.19"},
      {"variant": "LKKGSQVEALFSYEATQREDLEFQEGDIILVLSKVNEEWLEGECKGKVGIFPKVFVEDC", "note": "[P18R]", "abundance fitness": "-0.163 ± 0.1"},
      {"variant": "LKKGSQVEALFSYEATQKEDLEFQEGDIILVLSKVNEEWLEGECKGKVGIFPKVFVEDC", "note": "[P18K]", "abundance fitness": "-0.558 ± 0.38"},
      {"variant": "LKKGSQVEALFSYEATQQEDLEFQEGDIILVLSKVNEEWLEGECKGKVGIFPKVFVEDC", "note": "[P18Q]", "abundance fitness": "-0.83 ± 0.45"},
      {"variant": "LKKGSQVEALFSYEATQLEDLEFQEGDIILVLSKVNEEWLEGECKGKVGIFPKVFVEDC", "note": "[P18L]", "abundance fitness": "-0.801 ± 0.18"},
      {"variant": "LKKGSQVEALFSYEATQNEDLEFQEGDIILVLSKVNEEWLEGECKGKVGIFPKVFVEDC", "note": "[P18N]", "abundance fitness": "-0.074 ± 0.11"},
      {"variant": "LKKGSQVEALFSYEATQMEDLEFQEGDIILVLSKVNEEWLEGECKGKVGIFPKVFVEDC", "note": "[P18M]", "abundance fitness": "-0.235 ± 0.24"},
      {"variant": "LKKGSQVEALFSYEATQSEDLEFQEGDIILVLSKVNEEWLEGECKGKVGIFPKVFVEDC", "note": "[P18S]", "abundance fitness": "-0.587 ± 0.11"}
    ]}
  ]
}
